Reference: publication PMC3695516
Numbering of substitutions follows the chain as printed.

What was measured:
[1] = biological target: T1, chimp FOXP2 (truncated, WT) (chimpanzee, UniProt Q8MJA0 215-716); assay: MITOMI
T1 sequence: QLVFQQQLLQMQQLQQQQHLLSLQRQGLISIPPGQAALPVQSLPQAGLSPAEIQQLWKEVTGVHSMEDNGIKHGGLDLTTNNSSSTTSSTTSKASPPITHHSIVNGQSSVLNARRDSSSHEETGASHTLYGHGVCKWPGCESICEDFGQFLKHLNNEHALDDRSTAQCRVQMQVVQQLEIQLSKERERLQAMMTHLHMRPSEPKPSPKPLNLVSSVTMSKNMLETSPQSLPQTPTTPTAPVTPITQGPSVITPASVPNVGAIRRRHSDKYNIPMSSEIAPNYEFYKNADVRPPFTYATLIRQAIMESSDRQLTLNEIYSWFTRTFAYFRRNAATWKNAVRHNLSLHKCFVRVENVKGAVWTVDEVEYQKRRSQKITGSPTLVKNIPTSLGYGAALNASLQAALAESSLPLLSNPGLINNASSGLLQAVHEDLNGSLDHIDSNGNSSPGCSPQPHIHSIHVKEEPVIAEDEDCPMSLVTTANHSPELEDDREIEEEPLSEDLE

[2] = biological target: T2, human FOXP2 (truncated, WT) (human, UniProt O15409 214-715); assay: MITOMI
T2 sequence: T1 sequence with T90N, N112S

B1: oligonucleotide #175 (dsDNA)
DNA 1: CGCCTGTTACGGCATCAGGGCTTTGGTTTGGGCGGGCTGCTTGTTTACCAATTGTCTCCGGCGGTATGAC
DNA 2: GTCATACCGCCGGAGACAATTGGTAAACAAGCAGCCCGCCCAAACCAAAGCCCTGATGCCGTAACAGGCG
[1]
  binding result: binds
[2]
  binding result: binds
